Measured values taken from patent US20250250335A1 (SHENGHE CHINA BIOPHARMACEUTICAL, published 2025).

T1: CEACAM5 on the surface of the tumor cells (HPAFII cells) (UniProt P06731 35-685)
T1 construct: whole, on cells
T1 sequence (looked up): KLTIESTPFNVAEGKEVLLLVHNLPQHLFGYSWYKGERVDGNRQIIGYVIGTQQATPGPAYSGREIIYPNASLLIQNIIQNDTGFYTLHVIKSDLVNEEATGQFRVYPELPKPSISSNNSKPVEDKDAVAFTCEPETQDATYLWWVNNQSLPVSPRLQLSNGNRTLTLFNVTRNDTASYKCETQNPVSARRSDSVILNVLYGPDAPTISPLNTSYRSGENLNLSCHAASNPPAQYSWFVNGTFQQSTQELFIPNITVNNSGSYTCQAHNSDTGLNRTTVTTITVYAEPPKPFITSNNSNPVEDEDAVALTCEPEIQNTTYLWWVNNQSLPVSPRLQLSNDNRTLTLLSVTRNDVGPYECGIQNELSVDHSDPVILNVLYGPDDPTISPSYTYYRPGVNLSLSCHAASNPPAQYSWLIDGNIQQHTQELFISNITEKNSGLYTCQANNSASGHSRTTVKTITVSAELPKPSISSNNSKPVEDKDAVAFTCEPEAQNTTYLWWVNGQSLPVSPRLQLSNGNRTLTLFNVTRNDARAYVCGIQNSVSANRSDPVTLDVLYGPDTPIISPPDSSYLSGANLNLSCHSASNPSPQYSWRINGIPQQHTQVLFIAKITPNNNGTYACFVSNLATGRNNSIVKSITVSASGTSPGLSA

T2: CEACAM6 on the surface of the tumor cells (HPAFII cells) (UniProt P40199 35-320)
T2 construct: whole, on cells
T2 sequence (looked up): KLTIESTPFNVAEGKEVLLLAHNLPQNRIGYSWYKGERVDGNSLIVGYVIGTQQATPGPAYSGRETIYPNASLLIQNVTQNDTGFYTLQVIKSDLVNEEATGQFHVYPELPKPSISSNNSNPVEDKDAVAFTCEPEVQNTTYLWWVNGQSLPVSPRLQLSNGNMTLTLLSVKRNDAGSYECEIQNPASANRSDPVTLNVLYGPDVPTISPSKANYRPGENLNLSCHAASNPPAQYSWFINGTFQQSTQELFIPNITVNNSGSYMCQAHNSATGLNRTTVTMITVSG

T3: mouse CEACAM5 (mouse, UniProt Q3UKK2 35-947, limits assumed)
T3 sequence (looked up): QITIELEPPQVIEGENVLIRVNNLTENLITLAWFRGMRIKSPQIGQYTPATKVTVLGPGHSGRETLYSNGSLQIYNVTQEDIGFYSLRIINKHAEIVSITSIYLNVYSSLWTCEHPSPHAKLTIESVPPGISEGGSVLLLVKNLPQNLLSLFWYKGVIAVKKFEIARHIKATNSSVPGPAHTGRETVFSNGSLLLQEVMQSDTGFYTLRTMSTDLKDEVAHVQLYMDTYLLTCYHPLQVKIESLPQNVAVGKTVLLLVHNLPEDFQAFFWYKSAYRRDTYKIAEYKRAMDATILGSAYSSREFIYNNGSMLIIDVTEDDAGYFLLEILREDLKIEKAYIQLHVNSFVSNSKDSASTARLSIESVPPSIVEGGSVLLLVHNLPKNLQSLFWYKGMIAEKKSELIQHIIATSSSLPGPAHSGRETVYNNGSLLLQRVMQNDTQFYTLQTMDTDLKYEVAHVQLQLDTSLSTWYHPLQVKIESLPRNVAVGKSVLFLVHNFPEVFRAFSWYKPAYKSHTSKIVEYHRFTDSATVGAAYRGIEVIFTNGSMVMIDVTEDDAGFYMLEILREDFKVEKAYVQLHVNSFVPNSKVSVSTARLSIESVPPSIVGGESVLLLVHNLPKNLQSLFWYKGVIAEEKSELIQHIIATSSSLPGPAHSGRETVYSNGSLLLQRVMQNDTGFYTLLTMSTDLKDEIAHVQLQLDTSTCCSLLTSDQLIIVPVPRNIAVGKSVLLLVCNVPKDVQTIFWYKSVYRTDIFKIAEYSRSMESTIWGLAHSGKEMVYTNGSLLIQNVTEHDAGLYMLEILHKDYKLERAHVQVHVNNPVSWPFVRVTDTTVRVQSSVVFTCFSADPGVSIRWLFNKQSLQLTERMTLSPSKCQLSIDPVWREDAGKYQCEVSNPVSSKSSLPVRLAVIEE

T4: human CEACAM5-his (ACRO CE5-H5226) (human, UniProt P06731 35-685)
T4 construct: Bought protein; not shown: His tag
T4 sequence (looked up): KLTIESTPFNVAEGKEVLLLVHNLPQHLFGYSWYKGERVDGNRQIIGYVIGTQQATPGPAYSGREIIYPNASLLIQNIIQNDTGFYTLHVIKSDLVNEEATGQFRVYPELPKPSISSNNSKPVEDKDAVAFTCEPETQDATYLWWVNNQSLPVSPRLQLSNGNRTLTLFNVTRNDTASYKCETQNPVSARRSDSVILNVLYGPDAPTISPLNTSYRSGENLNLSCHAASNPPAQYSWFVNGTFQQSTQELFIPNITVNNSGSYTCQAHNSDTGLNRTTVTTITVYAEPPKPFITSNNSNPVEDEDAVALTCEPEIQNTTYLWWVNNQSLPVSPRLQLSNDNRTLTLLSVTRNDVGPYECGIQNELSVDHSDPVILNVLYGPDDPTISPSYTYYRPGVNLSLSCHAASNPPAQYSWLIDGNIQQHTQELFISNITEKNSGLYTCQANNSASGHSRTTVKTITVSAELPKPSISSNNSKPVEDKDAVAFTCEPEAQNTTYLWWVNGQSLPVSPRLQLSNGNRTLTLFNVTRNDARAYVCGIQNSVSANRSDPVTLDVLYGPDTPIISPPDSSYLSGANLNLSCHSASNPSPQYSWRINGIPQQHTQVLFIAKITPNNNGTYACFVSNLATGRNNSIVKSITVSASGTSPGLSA


Experiments:
[1] = biological target: T1, CEACAM5 on the surface of the tumor …; assay: flow cytometry on HPAFII cells (Mean-FITC); the cells carry CEACAM5 and CEACAM6, signal not divided between the two
Protocol: (§1) The antibody to be tested was taken as the initial concentration of 200 nM and diluted 5-fold with 6 gradients. The HPAFII cells (From USTC […] FOR ADVANCED STUDIES) in the incubator were taken out, and the cell suspension was transferred to a 15 mL centrifuge tube, centrifuged, and counted by resuspension in PBS. A blank control group (Blank), a negative control group (NC), an experimental group, a positive control group and the irrelevant antibody group were kept. […] The cell suspension was spread in a 96-well plate according to about 3×10⁵ cells/well. Centrifugation (1000 rpm, 5 min) was performed, followed by washing with PBS, re-centrifugation, and repeated twice to remove media residues. The supernatant was discarded, 100 μL of primary antibody solution and irrelevant antibody solution were added to the experimental group and irrelevant antibody group, respectively, and the cells were resuspended and incubated at room temperature for 1 h. The blank group, and the negative control group were incubated with an equal amount of PBS.
(§2) After 1 h, PBS was added to wash twice. After the supernatant was discarded, 100 μL of fluorescent secondary antibody dilution (Mouse-derived secondary antibody from Abcam ab6785) was added to each sample group, except for the blank group which was added with 100 μL of PBS. After incubation at room temperature and protected from light for 0.5 h, centrifugation was performed and PBS added to wash the samples twice. After the supernatant was discarded, 120 μL of PBS was added to resuspend and sequentially flow cytometry was performed to detect the mean fluorescence intensity. The concentration of the antibody was logarithmically taken as the horizontal coordinate, and the Sigmoidaldose-response (VariableSlope) method (GraphPadPrism Software, GraphPadSoftware, San Diego, California) was chosen to perform a nonlinear regression to obtain the binding activity curves of the antibody on HPAFII cells.

[2] = biological target: T2, CEACAM6 on the surface of the tumor …; assay: as above
Protocol: as §1, §2

mouse CEACAM5 = biological target: T3, mouse CEACAM5; assay: ELISA on coated protein, OD450
Protocol: The affinity of the antibodies to monkey CEACAM5, monkey CEACAM6, and mouse CEACAM5 proteins was determined by ELISA. The plates encapsulated with […] proteins were incubated at 4° C. overnight, and the antibodies to be detected were added to 96-well ELISA plates after being blocked with 2% PBS-BSA and incubated at 37° C. for 1 h. After washing 3 times with PBS containing 0.05% Tween, the absorbance value of each well was read at wavelength 450 nm with the antibody to be detected as the primary antibody and Goat anti-mouse IgG-FC-HRP as the secondary antibody, and the absorbance value of each well was read at wavelength 450 nm after the TMB color development. The specific binding to CEACAM5 and CEACAM6 of mouse and monkey was detected by Elisa method.

[3] = biological target: T4, human CEACAM5-his (ACRO CE5-H5226); assay: ELISA on coated human CEACAM5, OD450
Protocol: (§3) The binding activity of the antibodies to human CEACAM5, human CEACAM6, and human CEACAM6 (AB) proteins was detected by ELISA. The plate coated with proteins was incubated at 4° C. overnight, and the 96-well ELISA plate blocked with 2% PBS-BSA was added with the antibody to be detected and incubated at 37° C. for 1 h. After washing 3 times with PBS containing 0.05% Tween, the absorbance value of each well was read at wavelength 450 nm with the gradient-diluted mouse-derived candidate antibody as the primary antibody and anti-mouse-IgG-FC-HRP as the secondary antibody, and the absorbance value of each well was read at wavelength 450 nm after the TMB color development.

Human-CEACAM6 (AB)-His = biological target: T5, Human-CEACAM6 (AB)-His (human, UniProt P40199 145-314); assay: ELISA on coated human CEACAM6 (AB), OD450
T5 construct: Made in house, purified on a nickel column
T5 sequence (P40199 other isoform, or with tags, fused parts or gaps limits assumed): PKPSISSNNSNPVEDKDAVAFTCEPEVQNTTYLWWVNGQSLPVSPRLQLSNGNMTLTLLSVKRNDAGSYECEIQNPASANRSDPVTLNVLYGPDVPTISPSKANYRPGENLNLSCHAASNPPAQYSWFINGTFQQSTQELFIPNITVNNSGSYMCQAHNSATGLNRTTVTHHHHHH
Protocol: as §3

EC50 (read off the curve) [1] [nM]	EC50 (read off the curve) [2] [nM]	OD (mouse CEACAM5) [OD]	EC50 (read off the curve) [3] [µg/mL]	EC50 (read off the curve) (Human-CEACAM6 (AB)-His) [µg/mL]	Binder
~7	~7	0.15	~0.009	–	Antibody 10 (antibody, V domains shown, Mouse-derived hybridoma antibody; also called mouse-derived antibody 10) VH: QVQLQQSGPELVRPGVSVKISCKGSGYTFTDFAMHWVRQSHSKSLEWVGIITTYGGDTNYNQKFRGKATMTVDRSSSTVFLELARLTSEDSAIYYCARNRAYRFFYAMDYWGQGTSVTVSS VL: DIQMTQSPASLSASVGETVTITCGASENIYGALNWYQRKQGKSPHLLIYGATNLADGMSSRFSGSGSAGQYSLNISSLHPDDVATYYCQNVLFAPYTFGGGTRLEIK
~4	~4	–	~0.01	–	Antibody 11 (antibody, V domains shown, Mouse-derived hybridoma antibody; also called mouse-derived antibody 11) VH: QVQLQQSGPELVRPGVSVKISCKGSGYTFTDFAIHWVRQSHSRSLEWVGIITTYGGDTNYNQKFRGKATMTVDKSSSTVFLELARLTSEDSAIYYCARNRAYRFFYAMDYWGQGTSVTVSS VL: DIQMTQSPASLSASVGETVTITCGASENIYGALNWYQRKQGKSPQLLIYGATNLADGMSSRFSGSGSAGQYSLNISSLHPDDVATYYCQSVLFAPYTFGGGTRLEIK
~6	~6	–	~0.02	~0.01	Antibody 9 (antibody, V domains shown, Mouse-derived hybridoma antibody; also called mouse-derived antibody 9) VH: EVKLVESGGGLVQPGGSLRLSCATSEITFIDYYMSWVRQPPGKALEWLGLIRNKANGYTTEYSESVKGRFTISRDKSQSILYLQMNTLRVEDSATYYCARDPGINWYFDVWGAGTTVTVSS VL: QNILSQSPTILSASPGEKVTMTCRASSSVSYMHWYQQKPGSSPKPWIYATSNLASGVPARFSGSGSGTSYSLTISRVEAEDVAIYFCQRWGYNPPTFGAGTKLELK
